Laboratory results: the supplement of paper PMC9112550, “Optimization of the antimicrobial peptide Bac7 by deep mutational scanning” (BMC Biology, 2022)

system: Escherichia coli TOP10; assay: shrunken log2 fold change of peptide-encoding DNA abundance (4.5 h post-induction vs induction); higher = less antimicrobial activity (less host growth inhibition); details: time post-induction: 4.5 h; library: site-saturation at positions 5, 18, 19, 20
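Also: peptides expressed intracellularly from a pBAD plasmid library in pooled LB shake-flask culture, induced with 0.3% L-arabinose, DNA abundance read by NGS, three biological replicates, DESeq2 with apeglm shrinkage.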

| Sequence | shrunken log2 fold change |
| --- | --- |
| RRIRHRPPRLPRPRPRPPKFPRP | -0.223 |
| RRIRHRPPRLPRPRPRPPLCPRP | 0.0792 |
| RRIRHRPPRLPRPRPRPPMIPRP | -0.105 |
| RRIRHRPPRLPRPRPRPPMRPRP | 0.747 |
| RRIRHRPPRLPRPRPRPPNQPRP | -0.0151 |
| RRIRHRPPRLPRPRPRPPPEPRP | 0.836 |
| RRIRHRPPRLPRPRPRPPQAPRP | 0.236 |
| RRIRHRPPRLPRPRPRPPQVPRP | -0.0255 |
| RRIRHRPPRLPRPRPRPPRNPRP | 0.105 |
| RRIRHRPPRLPRPRPRPPRQPRP | 0.108 |
| RRIRHRPPRLPRPRPRPPSKPRP | -0.122 |
| RRIRHRPPRLPRPRPRPPTAPRP | 0.212 |
| RRIRHRPPRLPRPRPRPPTGPRP | 0.03 |
| RRIRHRPPRLPRPRPRPPTNPRP | 0.101 |
| RRIRHRPPRLPRPRPRPPTVPRP | 0.184 |
| RRIRHRPPRLPRPRPRPPVIPRP | -0.251 |
| RRIRHRPPRLPRPRPRPPVVPRP | 0.253 |
| RRIRHRPPRLPRPRPRPPYDPRP | -0.0114 |
| RRIRHRPPRLPRPRPRPQAAPRP | -0.0209 |
| RRIRHRPPRLPRPRPRPQASPRP | 0.0479 |
| RRIRHRPPRLPRPRPRPQDGPRP | -0.0342 |
| RRIRHRPPRLPRPRPRPQDSPRP | -0.00865 |
| RRIRHRPPRLPRPRPRPQFHPRP | -0.153 |
| RRIRHRPPRLPRPRPRPQFNPRP | -0.619 |
| RRIRHRPPRLPRPRPRPQFYPRP | -0.192 |

| Sequence | shrunken log2 fold change |
| --- | --- |
| RRIRHRPPRLPRPRPRPQGDPRP | 0.0795 |
| RRIRHRPPRLPRPRPRPQGKPRP | -0.0805 |
| RRIRHRPPRLPRPRPRPQHEPRP | -0.191 |
| RRIRHRPPRLPRPRPRPQHPPRP | -0.396 |
| RRIRHRPPRLPRPRPRPQIFPRP | -0.135 |
| RRIRHRPPRLPRPRPRPQKKPRP | -0.421 |
| RRIRHRPPRLPRPRPRPQPIPRP | -0.13 |
| RRIRHRPPRLPRPRPRPQQIPRP | -0.0193 |
| RRIRHRPPRLPRPRPRPQQMPRP | 0.00835 |
| RRIRHRPPRLPRPRPRPQQQPRP | -0.158 |
| RRIRHRPPRLPRPRPRPQQTPRP | 0.0173 |
| RRIRHRPPRLPRPRPRPQSKPRP | -0.342 |
| RRIRHRPPRLPRPRPRPQSYPRP | -0.175 |
| RRIRHRPPRLPRPRPRPQTTPRP | -0.0121 |
| RRIRHRPPRLPRPRPRPQVMPRP | -0.0437 |
| RRIRHRPPRLPRPRPRPQVTPRP | -0.0667 |
| RRIRHRPPRLPRPRPRPQWQPRP | -0.0687 |
| RRIRHRPPRLPRPRPRPQYDPRP | -1.12 |
| RRIRHRPPRLPRPRPRPRDYPRP | 0.0554 |
| RRIRHRPPRLPRPRPRPRELPRP | 0.234 |
| RRIRHRPPRLPRPRPRPREPPRP | 0.773 |
| RRIRHRPPRLPRPRPRPRERPRP | 0.392 |
| RRIRHRPPRLPRPRPRPREWPRP | 0.0987 |
| RRIRHRPPRLPRPRPRPREYPRP | -0.0589 |
| RRIRHRPPRLPRPRPRPRFTPRP | 0.007 |

| Sequence | shrunken log2 fold change |
| --- | --- |
| RRIRHRPPRLPRPRPRPRGLPRP | 0.369 |
| RRIRHRPPRLPRPRPRPRGQPRP | -0.0142 |
| RRIRHRPPRLPRPRPRPRINPRP | -0.0802 |
| RRIRHRPPRLPRPRPRPRKYPRP | -0.556 |
| RRIRHRPPRLPRPRPRPRLAPRP | 0.206 |
| RRIRHRPPRLPRPRPRPRLRPRP | 0.207 |
| RRIRHRPPRLPRPRPRPRNVPRP | -0.00885 |
| RRIRHRPPRLPRPRPRPRPQPRP | 0.416 |
| RRIRHRPPRLPRPRPRPRPTPRP | 0.759 |
| RRIRHRPPRLPRPRPRPRQYPRP | -0.185 |
| RRIRHRPPRLPRPRPRPRRGPRP | 0.343 |
| RRIRHRPPRLPRPRPRPRSDPRP | -0.123 |
| RRIRHRPPRLPRPRPRPRSVPRP | 0.0714 |
| RRIRHRPPRLPRPRPRPRVCPRP | 0.318 |
| RRIRHRPPRLPRPRPRPRVPPRP | -0.134 |
| RRIRHRPPRLPRPRPRPRWIPRP | -0.108 |
| RRIRHRPPRLPRPRPRPRWNPRP | -0.065 |
| RRIRHRPPRLPRPRPRPRWYPRP | -0.137 |
| RRIRHRPPRLPRPRPRPRYRPRP | -0.109 |
| RRIRHRPPRLPRPRPRPSAYPRP | -0.562 |
| RRIRHRPPRLPRPRPRPSDPPRP | -0.0545 |
| RRIRHRPPRLPRPRPRPSEPPRP | -0.206 |
| RRIRHRPPRLPRPRPRPSFLPRP | -0.729 |
| RRIRHRPPRLPRPRPRPSGLPRP | 0.0123 |
| RRIRHRPPRLPRPRPRPSGQPRP | -0.17 |
